Tests used:
2019-nCoV N蛋白抗原 [1] = target: T1, 2019-nCoV N蛋白抗原 (2019-nCoV (新型冠状病毒), UniProt P0DTC9 1-419)
2019-nCoV N蛋白抗原 [2] = target: T1, 2019-nCoV N蛋白抗原; assay: AMC sensor, antibody captured at 10 μg/mL, N protein antigen in serial dilution in PBST

B1: 抗新型冠状病毒的IgG抗体9B54 (antibody)
heavy: EVLLQQSGPELVNPGASVKIPCKASGYTFTDYNMGWVKQSHGKSLEWIGAIIPNNGGTIYNQKFKGKATLTVDESSSTAYMELRSLTSEDTAVYYCAREAYRDYDVKTWFAYWGQGTLVTVSAAKTTPPSVYPLAPGSAAQTNSMVTLGCLVKGYFPEPVTVTWNSGSLSSGVHTFPAVLQSDLYTLSSSVTVPSSTWPSETVTCNVAHPASSTKVDKKIVPRDCGCKPCICTVPEVSSVFIFPPKPKDVLTITLTPKVTCVVVDISKDDPEVQFSWFVDDVEVHTAQTQPREEQFNSTFRSVSELPIMHQDWLNGKEFKCRVNSAAFPAPIEKTISKTKGRPKAPQVYTIPPPKEQMAKDKVSLTCMITDFFPEDITVEWQWNGQPAENYKNTQPIMDTDGSYFVYSKLNVQKSNWEAGNTFTCSVLHEGLHNHHTEKSLSHSPGK
light: DLQMTQTTSSLSASLGDRVTISCSASQGIRNYLNWYQQKPDGTVKLLIYYTSTLHSGVPSRFSGSGSGTDYSLTISNLEPEDIATYFCQQYSKFPYTFGGGTKLEIKRADAAPTVSIFPPSSEQLTSGGASVVCFLNNFYPKDINVKWKIDGSERQNGVLNSWTDQDSKDSTYSMSSTLTLTKDEYERHNSYTCEATHKTSTSPIVKSFNRNEC
OD450 (ref. 630 nm) of cell supernatant diluted 1000-fold (2019-nCoV N蛋白抗原 [1]): > 1
Kd (2019-nCoV N蛋白抗原 [2]): 102 pM
koff (2019-nCoV N蛋白抗原 [2]): 0.000113 s⁻¹
kon (2019-nCoV N蛋白抗原 [2]): 1.11e+06 M⁻¹ s⁻¹

B2: 抗新型冠状病毒的类IgM抗体8C21 (antibody)
heavy: EVLLQQSGPELVNPGASVKIPCKASGYTFTDYNMGWVKQSHGKSLEWIGAIIPNNGGTIYNQKFKGKATLTVDESSSTAYMELRSLTSEDTAVYYCAREAYRDYDVKTWFAYWGQGTLVTVSAAKTTPPSVYPLAPGSAAQTNSMVTLGCLVKGYFPEPVTVTWNSGSLSSGVHTFPAVLQSDLYTLSSSVTVPSSTWPSETVTCNVAHPASSTKVDKKIVPRDCPAVAEMNPNVNVFVPPRDGFSGPAPRKSKLICEATNFTPKPITVSWLKDGKLVESGFTTDPVTIENKGSTPQTYKVISTLTISEIDWLNLNVYTCRVDHRGLTFLKNVSSTCAASPSTDILTFTIPPSFADIFLSKSANLTCLVSNLATYETLNISWASQSGEPLETKIKIMESHPNGTFSAKGVASVCVEDWNNRKEFVCTVTHRDLPSPQKKFISKPNEVHKHPPAVYLLPPAREQLNLRESATVTCLVKGFSPADISVQWLQRGQLLPQEKYVTSAPMPEPGAPGFYFTHSILTVTEEEWNSGETYTCVVGHEALPHLVTERTVDKSTGKPTLYNVSLIMSDTGGTCY
light: DLQMTQTTSSLSASLGDRVTISCSASQGIRNYLNWYQQKPDGTVKLLIYYTSTLHSGVPSRFSGSGSGTDYSLTISNLEPEDIATYFCQQYSKFPYTFGGGTKLEIKRADAAPTVSIFPPSSEQLTSGGASVVCFLNNFYPKDINVKWKIDGSERQNGVLNSWTDQDSKDSTYSMSSTLTLTKDEYERHNSYTCEATHKTSTSPIVKSFNRNEC
notes: IgM-like antibody made by replacing part of the constant region of 9B54 with that of IgM
Kd (2019-nCoV N蛋白抗原 [2]): 31 pM
koff (2019-nCoV N蛋白抗原 [2]): 6.56e-05 s⁻¹
kon (2019-nCoV N蛋白抗原 [2]): 2.11e+06 M⁻¹ s⁻¹

Reference: patent CN117088968A (DONGGUAN PENGZHI BIOTECHNOLOGY CO LTD, dated 2023)
